From PMC9655578 come the findings set out here.

Substrate in data set [1]: O=c1cc(-c2ccc(O)cc2)oc2cc(O)cc(O)c12
Put plainly: purified protein. Conditions: CYP:Pdx:PdR 1:8:2 (P. putida redox partners; CYP 1 µM), 500 µM NADH, phosphate buffer; 3'-hydroxylation.

Substrate in data set [2]: O=C1C[C@@H](c2ccc(O)cc2)Oc2cc(O)cc(O)c21
The data set can be described thus: purified protein. Conditions: CYP:Pdx:PdR 1:8:2 (P. putida redox partners; CYP 1 µM), 500 µM NADH, phosphate buffer; 3'-hydroxylation.

B1: CYP101D5 (Sphingomonas echinoides) (protein)
chain: MSAAEEIHTPRPAHVPADRVVELDMYNPQGIEKGYLEAWTSLQTADLPSMVWTPLNGGHWIATRGELIQDIYCDPDHFSSHVIFIPKAAGEKYAMVPSKMDPPEHRPYREVVDKGLNLRAIREREPAVRAHAIALIEAFADKGHCDFVEEFSGEFPIRVFMMMADLPMEDSPKLRAFAAGMTRPEGNTPTEMADALDRANRSFFDYVSPIIDARMGGDGTDILTLSINSQVNGAPMEREKLLGMVSLLLLAGLDTVTNFLNMTMDYLGRHPDKVRELTENPTEIRRGVEELFRRFPLVAAARMVAHDVERDGVELKQGEMVLLPTALHGLDPRVNADPWEVDFQRKRPAHSTFGNGPHRCAGLHLARLETTVMLEEWLKRIPTFRVVPGTGPTYHSGVVASVDGVRLEW
What is called Km is the concentration of substrate that gives half-maximal velocity. In general, kcat refers to the number of substrate molecules converted per active site and unit of time at saturation. For the protein B1, in “purified protein [1]”, the Km was determined as 46.28 ± 4.88 µM and the kcat was determined as 0.0138 s⁻¹. Moreover, in the data set “purified protein [2]”, the Michaelis-Menten constant (Km) stood at 26.39 ± 2.23 µM and the kcat came out at 0.0195 s⁻¹.
